Data from patent publication US20240190978A1 (CSBIOASSET, published 2024).

Experiments:
human CD80-Avi-tag = target: T1, human CD80-Avi-tag (human, UniProt P33681 35-242); assay: SPR (Biacore 8K, 25 °C), hCD80 immobilized, 1:1 binding model
T1 construct: also called immobilized human CD80; not shown: Avi-tag
T1 sequence (looked up): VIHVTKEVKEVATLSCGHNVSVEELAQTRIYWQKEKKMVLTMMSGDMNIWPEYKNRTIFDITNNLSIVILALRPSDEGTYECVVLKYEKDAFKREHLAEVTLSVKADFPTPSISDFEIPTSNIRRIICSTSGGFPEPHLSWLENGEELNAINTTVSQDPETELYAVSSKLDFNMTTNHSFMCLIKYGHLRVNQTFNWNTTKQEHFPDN
Procedure: (§1) To evaluate binding of the bispecific binding proteins disclosed herein, surface plasmon resonance (SPR) studies were performed on a Biacore 8k instrument (GE Healthcare) at 25° C. The binding of the protein analytes was tested in buffer: 10 mM HEPES, 150 mM NaCl, 3 mM EDTA, 0.05% TWEEN20, pH7.4 on surfaces consisting of a low density (˜200RU) of human CD40-Avi-tag or human CD80-Avi-tag which had been immobilized on NA-coated CM5 chips using standard protocol. The protein analytes were injected in a titration series at a flowrate of 50 ul/min. The data were analyzed using the Biacore Insight Evaluation software. An 1:1 binding kinetic and affinity models are applied for experimental data analysis. The value for the equilibrium dissociation constant (KD) was calculated as the ratio of the rate constants Kd/Ka.

human CD40-Avi-tag = target: T2, human CD40-Avi-tag (human, UniProt P25942 21-193); assay: SPR (Biacore 8K, 25 °C), hCD40 immobilized, 1:1 binding model
T2 construct: Immobilized on NA-coated CM5 chips at about 200 RU; not shown: Avi-tag
Procedure: as §1

T2 sequence (P25942 21-193 limits assumed): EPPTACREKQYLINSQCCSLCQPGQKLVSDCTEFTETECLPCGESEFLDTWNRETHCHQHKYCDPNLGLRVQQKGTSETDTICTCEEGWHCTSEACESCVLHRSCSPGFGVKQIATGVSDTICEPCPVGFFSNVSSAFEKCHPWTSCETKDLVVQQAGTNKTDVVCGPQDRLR

B1: α-CD40/CTLA-4 bispecific protein (SEQ ID NO: 2 with SEQ ID NO: 11) (bispecific antibody, human IgG4 S228P, kappa)
heavy: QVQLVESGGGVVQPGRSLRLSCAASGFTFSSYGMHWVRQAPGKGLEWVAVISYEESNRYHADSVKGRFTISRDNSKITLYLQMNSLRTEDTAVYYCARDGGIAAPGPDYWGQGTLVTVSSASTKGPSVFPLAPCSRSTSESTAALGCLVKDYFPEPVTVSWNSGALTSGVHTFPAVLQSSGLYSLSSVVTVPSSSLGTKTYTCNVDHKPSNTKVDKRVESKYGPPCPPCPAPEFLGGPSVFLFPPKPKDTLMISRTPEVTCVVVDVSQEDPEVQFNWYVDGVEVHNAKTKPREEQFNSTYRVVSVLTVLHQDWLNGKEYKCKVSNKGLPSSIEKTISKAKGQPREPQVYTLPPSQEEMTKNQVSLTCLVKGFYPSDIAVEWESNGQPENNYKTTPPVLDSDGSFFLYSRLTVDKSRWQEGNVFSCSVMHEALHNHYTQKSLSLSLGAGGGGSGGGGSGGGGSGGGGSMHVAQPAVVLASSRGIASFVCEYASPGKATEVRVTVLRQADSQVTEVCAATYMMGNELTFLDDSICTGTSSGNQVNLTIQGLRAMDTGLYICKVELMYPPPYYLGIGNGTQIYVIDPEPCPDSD
light: DIVMTQSPLSLTVTPGEPASISCRSSQSLLYSNGYNYLDWYLQKPGQSPQVLISLGSNRASGVPDRFSGSGSGTDFTLKISRVEAEDVGVYYCMQARQTPFTFGPGTKVDIRRTVAAPSVFIFPPSDEQLKSGTASVVCLLNNFYPREAKVQWKVDNALQSGNSQESVTEQDSKDSTYSLSSTLTLSKADYEKHKVYACEVTHQGLSSPVTKSFNRGEC
notes: also called Duotein-B; exemplary α-CD40/CTLA-4 bispecific protein
**Q.** Which Kd (human CD80-Avi-tag) does the source give for B1 here?
**A.** The Kd was 154 nM.

**Q.** What about the koff (human CD80-Avi-tag) of the same binder?
**A.** Its koff is 0.12 s⁻¹.

**Q.** What about the kon (human CD80-Avi-tag) of the same binder?
**A.** The kon was 780000 M⁻¹ s⁻¹.

**Q.** What about the Kd (human CD40-Avi-tag) of the same binder?
**A.** Its Kd is 0.325 nM.

**Q.** What about the koff (human CD40-Avi-tag) of the same binder?
**A.** The koff was 9.84e-05 s⁻¹.

**Q.** And the kon (human CD40-Avi-tag)?
**A.** Its kon is 303000 M⁻¹ s⁻¹.
